# Source: PMC4991794
# Molecular target: T1, SenRc (His-tagged response regulator) (Streptomyces coelicolor A3(2)) (UniProt Q9KXW5)
# T1 sequence: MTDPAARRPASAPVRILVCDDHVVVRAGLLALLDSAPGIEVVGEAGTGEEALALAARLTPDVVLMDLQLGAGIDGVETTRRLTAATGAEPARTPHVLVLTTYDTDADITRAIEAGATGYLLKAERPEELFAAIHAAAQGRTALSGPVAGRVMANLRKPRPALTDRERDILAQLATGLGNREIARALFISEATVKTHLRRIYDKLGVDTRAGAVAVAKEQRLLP
# Assay: EMSA
# Conditions: 10 mM Tris-HCl pH 7.5, 5% glycerol, 40 mM KCl, 1 mM MgCl2, 2 mM DTT, 10 ug/ml BSA; 30 C, 15 min; 30 ul with 20 ng or 25 ng (Methods) DNA; 7% …
row,Sequence,binding
1,CACCGGATACCTGTTGAAGGCCGAACGCCCCGAGGAGCTGTTCGCGGCCATCCACGCCGCCGCCCAGGGCCGTACGGCACTGTCCGGGCCGGTCGCCGGCCGGGTCATGGCCAACCTGCGCAAGCCGCGCCCCGCCCTCACCGACCGCGAGCGCGACATCCTGGCCCAGCTCGCCACCGGGCTCGGCAACCGGGAGATCGCCCGCGCCCTGTTCATCAG (double strand) [in-senRc],no binding
2,GGCACGTGCGCGCACGCCTGTCCAGTCCGAGGACCTGCCGACAGTGCGCCCGGCCGCCCTGGCCCGGGTGCCATGACGTCCGGGCCTCGCGGAGTGGGCCGGTGGACGCGACGCCGCGTGCGCTCGTGAGCTGCCCCCTGCCCTCCCTCCGCCGGGCCCCGTGCCGAGCGAGGGAGTGCTCCACGTGACCATCGCGCCAG (double strand) [up-SCO5226],binds
3,GAGTGGCGGCCATGGTGTGACACGTCCTTTGGAGACAGGTGGAAACGGCTCTGACCTGCGCGCATGGCGCATGGCACTACGTGGGCATACGTGAGACACGCGTGCGCGTCATTGCGCGGGAGCGAGGTGAATGCGGGGAATCCGGAGGTGCTGGAGAGTGCTCTCTTCAAGCTTGACAGATGGCGCTGGACATGCGGCCGAGGTCGACGTG (double strand) [up-SCO6102*],no binding
4,CTCGTACGTCCGTTTCGGGGGCTCGAAGACGGCTTCGCGCCCCCCGCCGTGCCCCCACGCTTACACGTTCCGGCCTGTACGCGTCCGTTTCCGGCACCCCAAATGAACCGTCCCTGGCTCCAAGGTGAACTCTGGGCGACGAGTGTTCGAGGTCGCACCCGGATGGCTGGGGCCGGACGGTTCGCCGTGCCTAACCTGGAGACATGGACGTGAAC (double strand) [up-SCO4229],binds
5,CACGTCGACCTCGGCCGCATGTCCAGCGCCATCTGTCCGGGCCGCTGAGAGCACTCTCCAGCACCTCCGGATTCCCCGCATTCACCTCGCTCCCGCGCAATGACGCGCACGCGTGTCTCACGTATGCCCACGTAGTGCCATGCGCCATGCGCGCAGGTCAGAGCCGTTTCCACCTGTCTCCAAAGGACGTGTCACACCATGGCCGCCACTC (double strand) [up-SCO6102],binds
6,GAAAGCATGGGTGTTAAAGTCGTGTGCATGAAGCAAGCAGCCGCGCCCACCACACCACAGCGCCTCGCGCTCGTGGCGCGCCTGCACGTGGACCTCTGCCGGTGCGCGTCCGCGAACTGTCGCCCCTGACGTTCCCCCCTCACCAGTCGTCCCCACGTCAGCTCAGCGCGTCCCATCCCGCGTCCCGTCCCCCTACGGAGCATGTCCGTGTG (double strand) [up-SCO4498],binds
7,GAGGAAGCCCGGTGCGAATCCGGCGCGGTCCCGCCACTGTGACCGGGGACAGGATCCCCGGGAGCCAGGAACTCTCGCCGCCGTGCTCTTCGAACCAGGGCGCGGACACCCTGAGTGAGGACCTATCGCCATGCGCGGCTGCCGTTCCGGGCTCACCAGCGACACGCTTCGACTTCCCCTTCCCACGGCCGGTTGAGCCGTGCGTGCC (double strand) [up-SCO1847],binds
8,GTTCACGTCCATGTCTCCAGGTTAGGCTCGTCGAAGATCAAGCTTGAGCCATCCGGGTGGGACCTCGAACACTCGTCGCCCAGAGTTCACCTTGGAGCCAGGGACGGTTCATTTGGGGTGCCGGAAACGGACGCGTACAGGCCGGAACGTGTAAGCGTGGGGGCACGGCGGGGGGCGCGAAGCCGTCTTCGAGCCCCCGAAACGGACGTACGAG (double strand) [up-SCO4229*],no binding
